This note sets out measurements from IntAct's records for PubMed 36638908.

The labels stand for the following.
B1: Eukaryotic translation initiation factor 4E1 (Drosophila melanogaster (Fruit fly)), P48598 (parent)
chain: MQSDFHRMKNFANPKSMFKTSAPSTEQGRPEPPTSAAAPAEAKDVKPKEDPQETGEPAGNTATTTAPAGDDAVRTEHLYKHPLMNVWTLWYLENDRSKSWEDMQNEITSFDTVEDFWSLYNHIKPPSEIKLGSDYSLFKKNIRPMWEDAANKQGGRWVITLNKSSKTDLDNLWLDVLLCLIGEAFDHSDQICGAVINIRGKSNKISIWTADGNNEEAALEIGHKLRDALRLGRNNSLQYQLHKDTMVKQGSNVKSIYTL
partner: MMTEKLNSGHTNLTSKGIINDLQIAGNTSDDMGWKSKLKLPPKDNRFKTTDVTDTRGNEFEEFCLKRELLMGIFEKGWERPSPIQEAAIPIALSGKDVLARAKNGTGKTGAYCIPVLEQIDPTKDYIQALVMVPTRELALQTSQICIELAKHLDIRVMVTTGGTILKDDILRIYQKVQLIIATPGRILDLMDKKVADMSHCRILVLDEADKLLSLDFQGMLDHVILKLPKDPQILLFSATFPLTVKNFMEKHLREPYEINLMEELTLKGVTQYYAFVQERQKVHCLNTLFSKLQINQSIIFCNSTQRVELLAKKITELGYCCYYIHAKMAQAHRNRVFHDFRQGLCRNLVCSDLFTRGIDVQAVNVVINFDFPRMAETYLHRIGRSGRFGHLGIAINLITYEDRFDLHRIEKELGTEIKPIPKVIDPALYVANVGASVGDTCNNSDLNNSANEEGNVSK

Variants of B1 are the subject of this assay. Conditions: with ddx6_drome me31B.
As for W117A, the “effect of a mutation on the interaction” value was “disrupting interaction strength”.
